Experimental data taken from patent US11661676B2, “Cellular high throughput encapsulation for screening or selection” (Universität Zürich, priority 2012, dated 2023).

Test: Thermostability assay of ADRA1A derived clones ([3H]prazosin binding after heat challenge)
Assay type: physicochemical
Settings: PBS-E(DCC), no ligand during solubilization, even at 20° C.
Method: Detergent-stable ADRA1A library members were selected with FACS using 200 nM BODIPY FL prazosin. (FIG. 8a) 21 selected clones were expressed individually, solubilized and assayed for ligand binding activity after 3 hours in PBS-E(DCC). (FIG. 8b) The top 4 receptors were solubilized in PBS-E(DCC) for 3 h at 20° C. in the absence of ligand. Solubilized receptors were captured from the supernatant with streptavidin paramagnetic beads at 4° C. for 1 h. ADRA1ADCCA3 (black circles), ADRA1ADCCG4 (grey open squares), ADRA1ADCCD7 (black crosses) or ADRA1ADCCD8 (grey open circles) coated beads were either treated with 20 nM [^3H]prazosin for 1 h before being thermally challenged for 30 min at increasing temperatures or […] treated with 20 nM [^3H]prazosin after heating in the absence of ligand. […] Parallel measurements were taken for every receptor in the presence of 10 μM unlabeled prazosin as a competitor to determine the specific […] signal. Data points are plotted as the mean of duplicate measurements, 100% represents the signal measured after heating at 20° C. for 30 min. Error bars indicate the standard error of the mean.
For ADRA1A derived clones, expression and sonication was conducted as above, but the pellet was solubilized in PBS-E(DCC) containing 50 mg/ml chicken lysozyme at 20° C. with vigorous shaking for 3 h in the absence of ligand. […]

B1: wild-type ADRA1A: wild-type alpha 1A adrenergic receptor, parental receptor (protein, UniProt P35348 1-466, looked up)
Alpha-1A adrenergic receptor: MVFLSGNASDSSNCTQPPAPVNISKAILLGVILGGLILFGVLGNILVILSVACHRHLHSVTHYYIVNLAVADLLLTSTVLPFSAIFEVLGYWAFGRVFCNIWAAVDVLCCTASIMGLCIISIDRYIGVSYPLRYPTIVTQRRGLMALLCVWALSLVISIGPLFGWRQPAPEDETICQINEEPGYVLFSALGSFYLPLAIILVMYCRVYVVAKRESRGLKSGLKTDKSDSEQVTLRIHRKNAPAGGSGMASAKTKTHFSVRLLKFSREKKAAKTLGIVVGCFVLCWLPFFLVMPIGSFFPDFKPSETVFKIVFWLGYLNSCINPIIYPCSSQEFKKAFQNVLRIQCLCRKQSSKHALGYTLHPPSQAVEGQHKDMVRIPVGSRETFYRISKTDGVCEWKFFSSMPRGSARITVSKDQSSCTTARVRSKSFLQVCCCVGPSTPSLDKNHQVPTIKVHTISLSENGEEV
In the case of B1, the “ligand binding signal when solubilized in the absence of ligand” value is reported as “no significant fluorescence signal was obtained” and the “ligand binding signal when solubilized in the absence of ligand” value (listed as ADRA1A) is reported as “No significant signal could be measured”.
